Measured values taken from patent publication US20170355774A1 (Regeneron, published 2017).

T1: hGITR.mmh (human)
T1 construct: soluble monomeric construct; also called human (h) GITR.mmh; monomeric human GITR
T1 chain: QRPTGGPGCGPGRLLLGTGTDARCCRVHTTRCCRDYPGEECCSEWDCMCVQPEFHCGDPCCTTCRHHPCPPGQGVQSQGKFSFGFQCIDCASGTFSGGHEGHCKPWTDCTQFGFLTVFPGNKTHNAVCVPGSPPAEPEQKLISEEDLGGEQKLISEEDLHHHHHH

T2: hGITR.mFc (human)
T2 construct: soluble dimeric construct with mouse Fc; also called dimeric human GITR
T2 chain: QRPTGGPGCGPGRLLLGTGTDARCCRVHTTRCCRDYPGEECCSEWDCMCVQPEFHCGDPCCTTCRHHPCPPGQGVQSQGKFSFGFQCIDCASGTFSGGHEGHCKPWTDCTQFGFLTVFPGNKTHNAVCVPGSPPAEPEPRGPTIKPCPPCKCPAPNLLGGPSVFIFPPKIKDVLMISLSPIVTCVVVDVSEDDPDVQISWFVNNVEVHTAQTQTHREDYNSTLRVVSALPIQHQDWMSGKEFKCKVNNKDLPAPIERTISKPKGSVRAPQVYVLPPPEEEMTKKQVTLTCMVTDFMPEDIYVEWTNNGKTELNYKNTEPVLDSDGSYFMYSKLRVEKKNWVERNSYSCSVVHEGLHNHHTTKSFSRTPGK

T3: mfGITR.mmh (Macaca fasicularis)
T3 construct: soluble monomeric construct; also called Macaca fasicularis (mf) GITR.mmh; cynomolgus GITR protein
T3 chain: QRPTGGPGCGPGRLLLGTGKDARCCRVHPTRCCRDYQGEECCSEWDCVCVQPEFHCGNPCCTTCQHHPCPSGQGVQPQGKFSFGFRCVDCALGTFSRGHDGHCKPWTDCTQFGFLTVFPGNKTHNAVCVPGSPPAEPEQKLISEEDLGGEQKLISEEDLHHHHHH

T4: human GITR (amino acids M1-V241, NCBI Accession #NP_004186.1) expressed on cells (human, UniProt Q9Y5U5 26-241)
T4 sequence: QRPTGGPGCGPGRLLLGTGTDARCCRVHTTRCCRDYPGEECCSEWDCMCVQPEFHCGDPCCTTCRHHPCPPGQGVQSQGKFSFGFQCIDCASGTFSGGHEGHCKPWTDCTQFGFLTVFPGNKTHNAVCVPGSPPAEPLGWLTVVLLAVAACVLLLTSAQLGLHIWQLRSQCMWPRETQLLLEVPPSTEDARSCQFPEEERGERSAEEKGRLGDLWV

B1: H4H14532P2 (antibody, human IgG4, V domains shown)
VH: QVQLVESGGGVVQPGRSLRLSCSASGFTLSNFVMHWVRQAPGKGLEWVAVILYDGSNKYYADSVKGRFTISRDNSNNRLYLQMNSLRAEDTALYYCARGESLGSPIYYYYGLDVWGQGTTVTVSS
VL: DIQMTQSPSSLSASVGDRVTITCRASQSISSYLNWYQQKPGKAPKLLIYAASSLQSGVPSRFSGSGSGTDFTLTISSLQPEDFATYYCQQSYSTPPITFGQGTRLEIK
notes: human IgG4 (H4H)
B2: H4H14470P (antibody, human IgG4, V domains shown)
VH: QVQLVESGGGVVQPGRSLRLSCAASGFTVRNYGMHWVRQAPGKGLEWVAVIWYDGSNKYYADSVKGRFTISRDNSKNTLFLQMNSLRAEDTAVYYCARGGELVRGDYYYGMDVWGQGTTVTVSS
VL: DIQMTQSPSSLSASVGDRVTITCRASQGIRNDLGWYQQKPGKAPKRLIYGASSLQSGVPSRFSGSGSGTEFTLTISSLQPEDFATYYCLQHNSYPYTFGQGTKLEIK
notes: human IgG4 (H4H)
B3: H4H14528P (antibody, human IgG4, V domains shown)
VH: QVQLVESGGGVVQPGRSLRISCAASGFTFNNYGFHWVRQAPGRGLEWVAVIWYSGSNKYYGDSVKGRFTISRDNSKNILYLQMNSLRAEDTAIYYCARFPFSSSWLLDYWGQGTLVTVSS
VL: DIQLTQSPSFLSASVGDRVTFTCWASQGISDYLAWYQQKPGKAPKLLIYAASALQSGVPSRFSGSGSGTEFTLTVSSLQPEDFATYYCQQLNSYPFTFGPGTKVDIK
notes: human IgG4 (H4H)
B4: H4H14539P2 (antibody, human IgG4, V domains shown)
VH: QVQLVESGGGVVQPGRSLRLSCAASGFSFSSYGMHWVRQAPGKGLEWMAVIWYAGSNKFYADSVKGRFTISRDNSKNTLYLQMNSLTAEDTAVYYCARGSSLAAPDLYKYGMDVWGQGTTVTVSS
VL: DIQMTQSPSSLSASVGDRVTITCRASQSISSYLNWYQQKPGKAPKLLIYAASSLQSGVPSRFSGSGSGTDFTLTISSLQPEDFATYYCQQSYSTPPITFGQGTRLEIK
notes: human IgG4 (H4H)

Molecular target: T1, hGITR.mmh
Test: SPR 37C, mAb capture

Row | Binder | Kd [nM] | koff [s⁻¹] | kon [M⁻¹ s⁻¹] | t½ [min]
1 | B1 | 18.5 | 0.00645 | 348000 | 1.8
2 | B2 | 64.7 | 0.0143 | 221000 | 0.8
3 | B3 | 51.3 | 0.00523 | 102000 | 2.2
4 | B4 | 82.5 | 0.0177 | 214000 | 0.7

Molecular target: T2, hGITR.mFc
Test: SPR 37C, mAb capture

Row | Binder | Kd [nM] | koff [s⁻¹] | kon [M⁻¹ s⁻¹] | t½ [min]
5 | B1 | 0.373 | 0.000269 | 720000 | 42.9
6 | B2 | 1.15 | 0.00104 | 904000 | 11.1
7 | B3 | 1.12 | 0.00177 | 1.58e+06 | 6.5
8 | B4 | 0.554 | 0.000472 | 853000 | 24.5

Molecular target: T3, mfGITR.mmh
Test: SPR 37C, mAb capture

Row | Binder | Kd [nM] | koff [s⁻¹] | kon [M⁻¹ s⁻¹] | t½ [min] | binding result
9 | B1 | 24.9 | 0.00648 | 260000 | 1.8 | 
10 | B2 |  |  |  |  | no binding
11 | B3 |  |  |  |  | no binding
12 | B4 | 22.8 | 0.00165 | 72300 | 7 | 

molecular target: T4, human GITR (amino acids M1-V241, NCBI …); test: cell-based or functional assay

Row | Binder | % Activation, NF-kB-Luc, non-anchored [%] | % Blocking, NF-kB-Luc, non-anchored [%] | EC50, hGITR activation, NF-kB-Luc, non-anchored [nM] | IC50, blocking of hGITRL stimulation, NF-kB-Luc, non-anchored [nM]
13 | B1 | 30 | 90 | 1.2 | 1
14 | B2 | 20 | 80 | 1.2 | 0.9
15 | B3 | 30 | 90 | 1.1 | 3.4
16 | B4 | 20 | 30 | 1.3 | 1.2

molecular target: T4, human GITR (amino acids M1-V241, NCBI …); test: cell-based or functional assay; remark: another data set of the same source

Row | Binder | fold activation, T-cell proliferation, plate-bound Ab 10.6 nM, donor 1 [fold] | fold activation, T-cell proliferation, plate-bound Ab 10.6 nM, donor 2 [fold] | fold activation, T-cell proliferation, plate-bound Ab 10.6 nM, donor 3 [fold] | fold activation, T-cell proliferation, plate-bound Ab 10.6 nM, donor 4 [fold] | fold activation, T-cell proliferation, plate-bound Ab 10.6 nM, donor 5 [fold] | fold activation, T-cell proliferation, plate-bound Ab 10.6 nM, donor 6 [fold] | fold activation, T-cell proliferation, plate-bound Ab 10.6 nM, donor 7 [fold] | fold activation, T-cell proliferation, plate-bound Ab 10.6 nM, donor 8 [fold] | fold activation, T-cell proliferation, plate-bound Ab 10.6 nM, mean [fold]
17 | B1 | 2 | 6 | 6 | 12 | 6 | 19 | 7 | 2 | 8
18 | B2 | 0 | 3 | 3 | 4 | 3 | 6 | 4 | 1 | 3
19 | B3 | 2 | 8 | 8 | 4 | 8 | 31 | 5 | 4 | 8
20 | B4 | 2 | 12 | 12 | 13 | 12 | 39 | 11 | 6 | 13

molecular target: T4, human GITR (amino acids M1-V241, NCBI …); test: cell-based or functional assay; remark: another data set of the same source

Row | Binder | fold activation, T-cell proliferation, 33 nM, FcgR anchored, donor 1 [fold] | fold activation, T-cell proliferation, 33 nM, FcgR anchored, donor 2 [fold] | fold activation, T-cell proliferation, 33 nM, FcgR anchored, donor 3 [fold] | fold activation, T-cell proliferation, 33 nM, FcgR anchored, donor 4 [fold] | fold activation, T-cell proliferation, 33 nM, FcgR anchored, donor 5 [fold] | fold activation, T-cell proliferation, 33 nM, FcgR anchored, mean [fold]
21 | B1 | 0.8 | 0.9 | 1 | 1.7 | 2.1 | 1.3
22 | B2 | 1.8 | 1 | 1.4 | 1.5 | 2 | 1.5
23 | B3 | 0.9 | 1.5 | 1.1 | 1.9 | 1.7 | 1.4
24 | B4 | 0.9 | 0.7 | 1.1 | 1.5 | 1.5 | 1.1

molecular target: T4, human GITR (amino acids M1-V241, NCBI …); test: cell-based or functional assay; remark: another data set of the same source

Row | Binder | fold activation, T-cell proliferation, 22 nM, non-anchored, donor 1 [fold] | fold activation, T-cell proliferation, 22 nM, non-anchored, donor 2 [fold] | fold activation, T-cell proliferation, 22 nM, non-anchored, donor 3 [fold] | fold activation, T-cell proliferation, 22 nM, non-anchored, donor 4 [fold] | fold activation, T-cell proliferation, 22 nM, non-anchored, mean [fold]
25 | B1 | 0.7 | 0.8 | 1 | 1.1 | 0.9
26 | B2 | 0.7 | 0.9 | 1 | 1.7 | 1.1
27 | B3 | 0.6 | 0.8 | 0.9 | 1 | 0.8
28 | B4 | 0.5 | 0.8 | 1.1 | 0.8 | 0.8

molecular target: T4, human GITR (amino acids M1-V241, NCBI …); test: ECL cell binding, hGITR/HEK293-D9
How it was run: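 Cells blocked with 2% BSA, then antibody dilutions from 1.7 pM to 100 nM added 1 h at RT. Bound antibody detected with SULFO-TAG anti-human kappa antibody, electrochemiluminescence read, RLU fitted by four-parameter logistic; signal at 100 nM on hGITR cells versus parental cells also recorded.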

Row | Binder | Average Signal (RLU) at 100 nM [RLU] | EC50 [nM]
29 | B1 | 5740 | 0.43
30 | B2 | 8390 | 1.4
31 | B3 | 7310 | 0.45
32 | B4 | 4910 | 0.3
